From US20260209362A1 (VIB VZW, published 2026)
Numbering of substitutions follows the chain as printed. Blank lines part the entries; values can stand above or below the binder they belong to.

Columns and labels:
[1] = biological target: T1, biotinylated recombinant mouse IL-12Rβ2 (mouse, UniProt P97378 24-637, random biotinylated); assay: ELISA, periplasmic extract on biotinylated mIL-12Rβ2, signal over control wells
T1 construct: Recombinant protein produced in-house, biotinylated; also called mIL-12RB2; mouse IL-12RB2
T1 sequence: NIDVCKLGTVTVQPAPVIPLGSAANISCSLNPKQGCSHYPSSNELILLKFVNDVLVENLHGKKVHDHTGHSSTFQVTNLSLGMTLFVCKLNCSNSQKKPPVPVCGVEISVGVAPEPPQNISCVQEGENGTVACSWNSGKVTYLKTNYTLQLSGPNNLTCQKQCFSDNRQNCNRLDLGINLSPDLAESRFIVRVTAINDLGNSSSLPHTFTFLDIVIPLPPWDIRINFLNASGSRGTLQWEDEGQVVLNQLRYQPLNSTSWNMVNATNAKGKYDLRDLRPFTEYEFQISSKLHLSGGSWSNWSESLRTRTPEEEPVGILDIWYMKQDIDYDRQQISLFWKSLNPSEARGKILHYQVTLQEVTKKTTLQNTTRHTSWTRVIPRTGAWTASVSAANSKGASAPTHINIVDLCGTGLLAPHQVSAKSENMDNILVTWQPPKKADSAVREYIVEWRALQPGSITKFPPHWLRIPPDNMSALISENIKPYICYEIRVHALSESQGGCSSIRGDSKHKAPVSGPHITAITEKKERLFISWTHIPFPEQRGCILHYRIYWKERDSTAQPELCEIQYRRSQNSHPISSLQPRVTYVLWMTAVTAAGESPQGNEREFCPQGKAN

[2] = biological target: T2, biotinylated recombinant human IL-12Rβ2 (human, UniProt Q99665 24-622, random biotinylated); assay: ELISA, periplasmic extract on biotinylated hIL-12Rβ2, signal over control wells
T2 construct: Recombinant protein produced in-house, biotinylated; also called hIL-12RB2; human IL-12RB2
T2 sequence: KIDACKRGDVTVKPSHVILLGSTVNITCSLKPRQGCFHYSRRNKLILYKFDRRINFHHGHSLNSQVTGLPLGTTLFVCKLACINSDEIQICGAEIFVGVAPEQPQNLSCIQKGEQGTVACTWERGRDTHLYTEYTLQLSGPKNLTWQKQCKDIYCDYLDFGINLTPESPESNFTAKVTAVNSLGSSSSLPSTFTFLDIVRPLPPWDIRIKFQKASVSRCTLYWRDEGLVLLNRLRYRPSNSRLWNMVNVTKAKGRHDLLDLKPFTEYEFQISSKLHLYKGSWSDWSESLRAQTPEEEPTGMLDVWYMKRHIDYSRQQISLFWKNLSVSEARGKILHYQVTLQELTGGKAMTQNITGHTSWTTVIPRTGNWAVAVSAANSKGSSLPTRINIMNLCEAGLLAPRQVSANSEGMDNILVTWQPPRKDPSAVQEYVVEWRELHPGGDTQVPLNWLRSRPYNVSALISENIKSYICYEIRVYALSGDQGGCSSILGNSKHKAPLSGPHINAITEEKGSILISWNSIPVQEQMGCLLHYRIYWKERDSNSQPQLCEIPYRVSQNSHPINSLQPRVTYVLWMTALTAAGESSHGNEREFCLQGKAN

B1: anti-IL-12Rβ2 VHH clone 20480 (VHH, not shown: small tags and cut ends)
VHH: QVQLQESGGGLVQAGGSLRLSCAASGRTFSSYGMGWFRQAPGKEREFVAAISRDARITDYADSVKGRFTISRDNAKNTAYLEMNSLNPEDTAVYFCAAAYTYSGSHYVTARSSDYHSWGQGTQVTVSS
notes: tested as periplasmic extract; also called 2CAM36
ELISA binding mIL-12RB2/control [1]: 18.1 ratio | ELISA binding hIL-12RB2/control [2]: 0.979 ratio

B4: anti-IL-12Rβ2 VHH clone 20504 (VHH, not shown: small tags and cut ends)
VHH: QVQLQESGGGLVQAGGSLKLSCAATGFILDYVGVGWFRQAPGKERDFVAAISRDARITDYADSVKGRFTISRDNAKNTAYLQMNSLNPEDTAVYFCAAAYTYSGSHYVTARSSDYHTWGQGTQVTVSS
notes: tested as periplasmic extract; also called 3CAM3
ELISA binding mIL-12RB2/control [1]: 14.5 ratio | ELISA binding hIL-12RB2/control [2]: 1.27 ratio

B6: anti-IL-12Rβ2 VHH clone 20481 (VHH, not shown: small tags and cut ends)
VHH: B1 VHH with E46D, A75V, A79V, E82Q
notes: tested as periplasmic extract; also called 2CAM38
ELISA binding mIL-12RB2/control [1]: 15.8 ratio | ELISA binding hIL-12RB2/control [2]: 0.983 ratio

B7: anti-IL-12Rβ2 VHH clone 20491 (VHH, not shown: small tags and cut ends)
VHH: B1 VHH with E46D, I57Y, R72K, E82Q, S113G, H116N, S117Y
notes: tested as periplasmic extract; also called 2CAM57
ELISA binding mIL-12RB2/control [1]: 14.4 ratio | ELISA binding hIL-12RB2/control [2]: 1 ratio

B9: anti-IL-12Rβ2 VHH clone 20488 (VHH, not shown: small tags and cut ends)
VHH: B1 VHH with V12M, G16D, D54G, E82Q
notes: tested as periplasmic extract; also called 2CAM48
ELISA binding mIL-12RB2/control [1]: 12.9 ratio | ELISA binding hIL-12RB2/control [2]: 0.973 ratio

B10: anti-IL-12Rβ2 VHH clone 20500 (VHH, not shown: small tags and cut ends)
VHH: B1 VHH with A14P, R27F
notes: tested as periplasmic extract; also called 2CAM81
ELISA binding mIL-12RB2/control [1]: 24 ratio | ELISA binding hIL-12RB2/control [2]: 0.982 ratio

B16: anti-IL-12Rβ2 VHH clone 20495 (VHH, not shown: small tags and cut ends)
VHH: B1 VHH with S31M, Y32H, E82Q, H116N, S117Y
notes: tested as periplasmic extract; also called 2CAM69
ELISA binding mIL-12RB2/control [1]: 15.8 ratio | ELISA binding hIL-12RB2/control [2]: 0.924 ratio

Results, then the binder that gave them:

ELISA binding mIL-12RB2/control [1]: 4.78 ratio | ELISA binding hIL-12RB2/control [2]: 1.07 ratio
B2: anti-IL-12Rβ2 VHH clone 20538 (VHH, not shown: small tags and cut ends)
VHH: B1 VHH with A14P, G16D, D54G, I57N, E82Q, H116P, S117Y
notes: tested as periplasmic extract; also called 2CAMS83

ELISA binding mIL-12RB2/control [1]: 17.8 ratio | ELISA binding hIL-12RB2/control [2]: 1.03 ratio
B3: anti-IL-12Rβ2 VHH clone 20514 (VHH, not shown: small tags and cut ends)
VHH: B1 VHH with G16D, A23I, R27P, T28S
notes: tested as periplasmic extract; also called 3CAM70

ELISA binding mIL-12RB2/control [1]: 9.31 ratio | ELISA binding hIL-12RB2/control [2]: 0.919 ratio
B5: anti-IL-12Rβ2 VHH clone 20544 (VHH, not shown: small tags and cut ends)
VHH: B1 VHH with S17P, E46D, A75V, A79V, E82Q
notes: tested as periplasmic extract; also called 3CAMS19

ELISA binding mIL-12RB2/control [1]: 5.12 ratio | ELISA binding hIL-12RB2/control [2]: 1.02 ratio
B8: anti-IL-12Rβ2 VHH clone 20547 (VHH, not shown: small tags and cut ends)
VHH: B1 VHH with E46D, D54G, I57N, T58A, E82Q, H116A, S117Y
notes: tested as periplasmic extract; also called 3CAMS47

ELISA binding mIL-12RB2/control [1]: 3.38 ratio | ELISA binding hIL-12RB2/control [2]: 0.842 ratio
B11: anti-IL-12Rβ2 VHH clone 20536 (VHH, not shown: small tags and cut ends)
VHH: B1 VHH with L11M, D54G, I57N, E82Q, H116P, S117Y
notes: tested as periplasmic extract; also called 2CAMS53

ELISA binding mIL-12RB2/control [1]: 8.57 ratio | ELISA binding hIL-12RB2/control [2]: 0.834 ratio
B12: anti-IL-12Rβ2 VHH clone 20540 (VHH, not shown: small tags and cut ends)
VHH: B1 VHH with G16D, L20I, E46D, I57Y, R72K, E82Q, S113G, H116N, S117Y
notes: tested as periplasmic extract; also called 3CAMS5

ELISA binding mIL-12RB2/control [1]: 8.98 ratio | ELISA binding hIL-12RB2/control [2]: 0.951 ratio
B13: anti-IL-12Rβ2 VHH clone 20548 (VHH, not shown: small tags and cut ends)
VHH: B1 VHH with A24D, D54G, E82Q
notes: tested as periplasmic extract; also called 3CAMS50

ELISA binding mIL-12RB2/control [1]: 4.89 ratio | ELISA binding hIL-12RB2/control [2]: 1.03 ratio
B14: anti-IL-12Rβ2 VHH clone 20539 (VHH, not shown: small tags and cut ends)
VHH: B1 VHH with D54G, I57N, Y80F, E82Q, S117T
notes: tested as periplasmic extract; also called 2CAMS87

ELISA binding mIL-12RB2/control [1]: 5.66 ratio | ELISA binding hIL-12RB2/control [2]: 0.915 ratio
B15: anti-IL-12Rβ2 VHH clone 20541 (VHH, not shown: small tags and cut ends)
VHH: B1 VHH with F95S
notes: tested as periplasmic extract; also called 3CAMS9

ELISA binding mIL-12RB2/control [1]: 21.8 ratio | ELISA binding hIL-12RB2/control [2]: 1.23 ratio
B17: anti-IL-12Rβ2 VHH clone 20516 (VHH, not shown: small tags and cut ends)
VHH: B1 VHH with G35S, E46D, A75V, A79V, E82Q
notes: tested as periplasmic extract; also called 3CAM85
